# In patent publication US20220411492A1 (QILU PHARMACEUTICAL, published 2022):
# How the values were obtained:
# [1] = biological target: T1, human Claudin 18.2 (hCLDN18.2) (human, UniProt P56856-2 1-261); experiment: FACS, HEK293-hCLDN18.2 cells
# T1 construct: whole, on cells; also called CLDN18A2; claudin 18 splice variant 2
# Description: (§1) FACS was used to detect the binding of anti-CLDN18.2 chimeric antibodies to HEK293 cells stably transfected expressing hCLDN18.2 (HEK293-hCLDN18.2) and gastric cancer tumor tissue-derived cells naturally expressing hCLDN18.2 (PDX-hCLDN18.2).
# [2] = biological target: murine CLDN18.2 (mCLDN18.2) (murine) (UniProt P56857); experiment: FACS, HEK293-mCLDN18.2 cells
# [3] = biological target: T1, human Claudin 18.2 (hCLDN18.2); experiment: cell-based or functional assay
# [4] = biological target: T1, human Claudin 18.2 (hCLDN18.2); experiment: FACS, PDX-hCLDN18.2 gastric cancer tumor tissue-derived cells
# Description: as §1
# [5] = biological target: T1, human Claudin 18.2 (hCLDN18.2); experiment: cell-based or functional assay; remark: listed apart in the source
# [6] = biological target: T1, human Claudin 18.2 (hCLDN18.2); experiment: FACS, HEK293-hCLDN18.2 cells; remark: listed apart in the source
# Description: Following transient expression in mammalian cell lines, affinity assays were performed using HEK293-hCLDN18.2 cells and monoclonal cell supernatants were screened by FACS.
EC50 [1] [nM],Mean maximum fluorescence intensity (Top MFI) [1] [MFI],EC50 [2] [nM],Mean maximum fluorescence intensity (Top MFI) [2] [MFI],CDC EC50 [3] [µg/mL],CDC Maximum lysis (%) [3] [%],EC50 [4] [nM],Mean maximum fluorescence intensity (Top MFI) [4] [MFI],ADCC EC50 [5] [µg/mL],ADCC Maximum lysis (%) [5] [%],binding result [6],EC50 [6] [µg/mL],Mean maximum fluorescence intensity (Top MFI) [6] [MFI],Binder
1.52,10100,0.758,13600,0.124,95.5,5.81,16300,0.047,33.5,–,–,–,"ch-299B2 (antibody, V domains shown, also called chimeric antibody of clone 299B2) VH: QVQLKQSGPELVRPGASVKLSCKTSGYIFTNYWIHWVKQRSGQGLEWVVRIYPGTGNTYYNEKFTGKATLTADKSSSTAYMQLSSLKYEDSAVYFCSREGYGKGNSMDYWGQGTSVTVSS VL: DIVMTQSPSSLTVTAGEKVTMNCKSSQSLLNSGNQKNYLTWYQQKPGQPPKLLFYWASTRESGVPDRFTGSGSGTDFTLTISSVQAEDLAVYHCQNAYYYPYTFGGGTKLEMK"
3.02,12200,1.16,10500,0.099,95,4.87,15200,0.027,36.6,–,–,–,"ch-241F7 (antibody, V domains shown, also called chimeric antibody of clone 241F7) VH: EVQLQQSGPELEKPGASVKISCKASGYSFTAYNMNWVRQRNGKSLEWIGNIDPYYGGTNYNQKFKGKATLTVDKSSSTAYMQLKSLTSEDSAVYFCATVYYGNSLIYWGQGTLVTVSA VL: DIVMTQSPSSLTVTAGEKVTMSCKSSQSLLNSGNQKNYLTWYQQKPGQPPKLLIYWASTRESGVPDRFTGTGSGTDFTLTISSVQAEDLAVYYCQNNYFYPLTFGAGTQLELK"
2.65,10900,1.14,10200,0.141,96.3,16.8,17600,0.017,35.5,–,–,–,"ch-287F12 (antibody, V domains shown, also called chimeric antibody of clone 287F12) VH: QIQLVQSGPELKRPGETVRISCKASGFTFTTAGMHWVQKMAGKGLKWLGWTNTHSGEPKYAEDFKGRFAFSLDTSGSDAYLQIGNLKYEDAATYFCAKWGRGNALDYWGQGTSVTVSS VL: DIVMTQSPSSLTVTAGEKVTMTCKSSQSLLNSGNQKNYLTWYQQKPGQPPKLLIYWASTRESGVPDRFTGSGSGTDFTLTINTVQAEDLAVYYCQNTYSYPLTFGGGTKLELR"
2.41,9040,1.22,11200,0.091,94.7,12.4,18100,0.023,29.4,–,–,–,"ch-59F9 (antibody, V domains shown, also called chimeric antibody of clone 59F9) VH: QVQLQQSGAELMKPGASVKLPCKASGYTLTGYWIEWLKQRPRHGLEWIGEILLGSGSIKYNVKFKDKATFTADTSSNTAYMQLNSLTTEDSAIYYCARKGLRGNSFDYWGQGTTLTVSS VL: DIVMTQSPSSLTVTAGEKVTMSCKSSQSLLNSGNQKSYLTWYQQKPGQPPKRLIYWASTRESGVPDRFTGSGSGTDFTLTISSVQAEDLAVYYCQNDYYYPFTFGSGTKLEIK"
2.72,10800,1.01,8590,0.359,97.1,96.2,19900,0.024,38.8,–,–,–,"ch-251H11 (antibody, V domains shown, also called chimeric antibody of clone 251H11) VH: QVQLKQSGAELVRPGASVKLSCKTSGYTFTTFWIHWIKQRSGQGLEWIAKIYPGTGYTYYNEKFKGKATLTADKSSSAAYMQLSSLKSEDSAVYFCAREGYGKGNAVDFWGQGSSVTVSS VL: DIVMTQSPSSLTVTAGEKVTMSCKSSQSLFNSGNQKNYLTWYQQKPGQPPKLLIYWASTRESGVPDRFTGSGSGTDFTLTIDSVQAEDLAVYYCQNDYTYPSTFGGGTNLEIK"
–,–,–,–,–,–,–,–,–,–,binds,–,–,"ch-299B2-N31Q (antibody, V domains shown, Light chain variable region mutant N31Q of 299B2; also called ch-299B2-X31Q; chimeric antibody of 299B2-N31Q) VH: QVQLKQSGPELVRPGASVKLSCKTSGYIFTNYWIHWVKQRSGQGLEWVVRIYPGTGNTYYNEKFTGKATLTADKSSSTAYMQLSSLKYEDSAVYFCSREGYGKGNSMDYWGQGTSVTVSS VL: DIVMTQSPSSLTVTAGEKVTMNCKSSQSLLQSGNQKNYLTWYQQKPGQPPKLLFYWASTRESGVPDRFTGSGSGTDFTLTISSVQAEDLAVYHCQNAYYYPYTFGGGTKLEMK"
–,–,–,–,–,–,–,–,–,–,–,1.31,6500,"ch-299B2-S32A (antibody, V domains shown, also called chimeric antibody of 299B2-S32A) VH: QVQLKQSGPELVRPGASVKLSCKTSGYIFTNYWIHWVKQRSGQGLEWVVRIYPGTGNTYYNEKFTGKATLTADKSSSTAYMQLSSLKYEDSAVYFCSREGYGKGNSMDYWGQGTSVTVSS VL: DIVMTQSPSSLTVTAGEKVTMNCKSSQSLLNAGNQKNYLTWYQQKPGQPPKLLFYWASTRESGVPDRFTGSGSGTDFTLTISSVQAEDLAVYHCQNAYYYPYTFGGGTKLEMK"
–,–,–,–,–,–,–,–,–,–,–,0.157,6870,"ch-299B2-G33A (antibody, V domains shown, also called chimeric antibody of 299B2-G33A) VH: QVQLKQSGPELVRPGASVKLSCKTSGYIFTNYWIHWVKQRSGQGLEWVVRIYPGTGNTYYNEKFTGKATLTADKSSSTAYMQLSSLKYEDSAVYFCSREGYGKGNSMDYWGQGTSVTVSS VL: DIVMTQSPSSLTVTAGEKVTMNCKSSQSLLNSANQKNYLTWYQQKPGQPPKLLFYWASTRESGVPDRFTGSGSGTDFTLTISSVQAEDLAVYHCQNAYYYPYTFGGGTKLEMK"
2.27,10300,0.79,8330,0.038,95.2,9.73,15500,0.036,35.7,–,–,–,"ch-253C4 (antibody, V domains shown, also called chimeric antibody of clone 253C4) VH: QVQLKQSGAELVRPGASVSLSCKTSGYIFTSYWIHWVKQRSGQGLEWIGRFYPGTGTAYYNENFEGKATLTADRSSSTAYMQLSSLKSDDSAVYFCTREGYGKGNAMDYWGQGTSVTVSS VL: DIVMTQSPSSLTVTTGEKVTLSCKSSQSLLNSGNQKNYLTWYQQKSGQPPELLIYWASTRESGVPDRFTGSGSGTDFTLTVSSVQAEDLAVYYCQNDYYFPFTFGGGTKLEIK"
–,–,–,–,–,–,–,–,–,–,–,0.175,6560,"ch-253C4-N31Q (antibody, V domains shown, also called chimeric antibody of 253C4-N31Q) VH: QVQLKQSGAELVRPGASVSLSCKTSGYIFTSYWIHWVKQRSGQGLEWIGRFYPGTGTAYYNENFEGKATLTADRSSSTAYMQLSSLKSDDSAVYFCTREGYGKGNAMDYWGQGTSVTVSS VL: DIVMTQSPSSLTVTTGEKVTLSCKSSQSLLQSGNQKNYLTWYQQKSGQPPELLIYWASTRESGVPDRFTGSGSGTDFTLTVSSVQAEDLAVYYCQNDYYFPFTFGGGTKLEIK"
–,–,–,–,–,–,–,–,–,–,–,0.187,6840,"ch-253C4-G33A (antibody, V domains shown, also called chimeric antibody of 253C4-G33A) VH: QVQLKQSGAELVRPGASVSLSCKTSGYIFTSYWIHWVKQRSGQGLEWIGRFYPGTGTAYYNENFEGKATLTADRSSSTAYMQLSSLKSDDSAVYFCTREGYGKGNAMDYWGQGTSVTVSS VL: DIVMTQSPSSLTVTTGEKVTLSCKSSQSLLNSANQKNYLTWYQQKSGQPPELLIYWASTRESGVPDRFTGSGSGTDFTLTVSSVQAEDLAVYYCQNDYYFPFTFGGGTKLEIK"
